Laboratory results taken from patent US20190374506A1 (BETH ISREAL DEACONESS MEDICAL CENTER, published 2019).

Tests used:
[1] = biological target: T1, Flag-WWP1 ΔWW domain (deletion 341-547) (Homo sapiens (Human), UniProt Q9H0M0 1-922); assay: immunoprecipitation and western blot, 293 cells (FIG. 4E)
T1 construct: The two kept ranges are counted on the 922-residue WWP1 entry; not shown: Flag tag
T1 sequence: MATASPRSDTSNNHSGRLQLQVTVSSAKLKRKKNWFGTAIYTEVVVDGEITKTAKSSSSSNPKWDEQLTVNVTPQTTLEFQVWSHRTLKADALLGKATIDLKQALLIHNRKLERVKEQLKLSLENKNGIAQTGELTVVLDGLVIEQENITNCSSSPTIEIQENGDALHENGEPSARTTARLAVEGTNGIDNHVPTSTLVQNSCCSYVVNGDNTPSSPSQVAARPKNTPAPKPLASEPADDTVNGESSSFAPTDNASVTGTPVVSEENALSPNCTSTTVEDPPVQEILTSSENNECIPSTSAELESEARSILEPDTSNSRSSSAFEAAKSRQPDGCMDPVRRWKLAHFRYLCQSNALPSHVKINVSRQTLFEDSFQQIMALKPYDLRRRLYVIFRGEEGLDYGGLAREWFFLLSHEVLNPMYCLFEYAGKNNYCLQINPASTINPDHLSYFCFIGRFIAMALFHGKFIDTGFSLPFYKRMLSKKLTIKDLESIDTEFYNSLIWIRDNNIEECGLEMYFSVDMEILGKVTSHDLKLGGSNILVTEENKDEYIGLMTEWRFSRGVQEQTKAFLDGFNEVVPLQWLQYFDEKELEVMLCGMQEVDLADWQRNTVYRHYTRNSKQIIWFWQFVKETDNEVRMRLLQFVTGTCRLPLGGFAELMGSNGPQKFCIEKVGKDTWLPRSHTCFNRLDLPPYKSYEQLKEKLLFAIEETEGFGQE
Protocol: Lysates of 293 cells transfected with indicated constructs were analysed by immunoprecipitation and/or western blot with indicated antibodies.
Western Blotting and Immunoprecipitation. For western blotting, cells were lysed in RIPA buffer (Boston BioProducts) supplemented with protease (Roche) and phosphatase (Roche) inhibitor. Proteins were separated on NuPAGE 4-12% Bis-Tris gradient gels (Invitrogen), transferred to polyvinylidine difluoride membranes (Immobilon P, Millipore) and the blots were probed with the indicated antibodies. For immunoprecipitation, PC3, 293T and MEF cells were transfected with the indicated expression vectors by using LIPOFECTAMIN 2000 (Life Technologies). 24 hours after transfection, cells were lysed in RIPA buffer with protease (Roche) and phosphatase (Roche) inhibitor. 500 μg of total lysates were pre-cleared for 30 minutes at 4° C., and then immunoprecipitated with anti-Myc (Cell Signaling Technology 9B11, 1:500), or anti-PTEN (Cell Signaling Technology 9559, 1:500) antibody overnight at 4° C. The Protein-A or Protein-G sepharose beads (GE Healthcare) were then added and incubated for another 2 hours. The immunoprecipitates were washed with RIPA buffer three times. […]

[2] = biological target: T2, WW domain containing E3 ubiquitin protein ligase 1 (WWP1) (human, UniProt Q9H0M0 1-922, limits assumed); assay: anti-PTEN immunoprecipitation from DU145 cells, western blot (FIG. 2B)
T2 construct: also called endogenous WWP1; WW domain-containing protein-1

- binding result [1]: no binding
- binding result [2]: binds
B1: Phosphatase And Tensin Homolog Deleted On Chromosome Ten (PTEN) (enzyme)
chain: not shown
notes: also called endogenous PTEN; PTEN WT
